Measured values taken from paper PMC6954417.

Key:
[1] = molecular target: T1, His6-RAD52 (Homo sapiens) (UniProt P43351); experiment: competition (FRET); conditions: 8 nM RAD52 on 1 nM Cy3-dT30-Cy5; ssDNA EMSA: 30 mM Tris-acetate pH 7.5, 1 mM DTT, RT, 0.1% glutaraldehyde; FRET: same buffer + 0.1 mg/ml BSA, 25 C; dsDNA EMSA: 30 mM KPi pH 7.4, 1 mM DTT …; scale: nM base pairs for nearly complete ssDNA release
T1 sequence: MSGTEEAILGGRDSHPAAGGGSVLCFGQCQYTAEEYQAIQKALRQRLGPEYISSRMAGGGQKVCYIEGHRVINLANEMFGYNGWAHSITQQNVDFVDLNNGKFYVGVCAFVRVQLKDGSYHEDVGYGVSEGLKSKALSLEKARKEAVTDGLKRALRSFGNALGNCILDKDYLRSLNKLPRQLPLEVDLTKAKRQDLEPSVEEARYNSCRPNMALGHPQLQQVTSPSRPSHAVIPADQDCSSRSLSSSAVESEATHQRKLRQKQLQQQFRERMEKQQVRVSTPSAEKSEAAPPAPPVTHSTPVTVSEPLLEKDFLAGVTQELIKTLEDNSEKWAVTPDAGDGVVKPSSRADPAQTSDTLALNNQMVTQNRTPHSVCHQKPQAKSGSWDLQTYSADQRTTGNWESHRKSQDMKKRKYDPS

[2] = molecular target: His6-RAD52;DSS1 (Homo sapiens;Homo sapiens) (UniProt P43351+P60896); experiment: competition (FRET); conditions: 8 nM RAD52-DSS1 on 1 nM Cy3-dT30-Cy5; ssDNA EMSA: 30 mM Tris-acetate pH 7.5, 1 mM DTT, RT, 0.1% glutaraldehyde; FRET: same buffer + 0.1 mg/ml BSA, 25 C; dsDNA EMSA: 30 mM KPi pH 7.4, 1 mM DTT …; scale: nM base pairs for almost complete ssDNA release
RAD52 (human) [3] = molecular target: RAD52 (human) (UniProt P43351)
RAD52 (human) [4] = molecular target: RAD52 (human) (UniProt P43351); remark: listed apart in the source
RAD52 (human) [5] = molecular target: RAD52 (human) (UniProt P43351); remark: listed apart in the source

His6-RAD52;DSS1 (Homo sapiens;Homo sapiens), sequence (P60896 whole entry, one chain of several): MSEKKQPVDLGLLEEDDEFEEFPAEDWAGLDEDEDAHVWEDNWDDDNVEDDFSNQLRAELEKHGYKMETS

gel-based single-strand annealing of 3'-overhang substrates, increasing RAD52 or pre-formed RAD52-DSS1 (1:1): maximum yield (optimum at 120 nM complex against 480 nM RAD52 alone) (RAD52 (human) [3]) [%]	FRET-based annealing of complementary 28-mers, 8 nM RAD52 with 40 nM DSS1, no RPA: initial rate (RAD52 alone 5.2 bp/s) (RAD52 (human) [4]) [bp/s]	D-loop formation with a 90-mer ssDNA and supercoiled plasmid, RAD52 or RAD52-DSS1 (1:1) at 150-3200 nM: yield (10% for RAD52 alone at 800 nM) (RAD52 (human) [5]) [%]	Substance	binding signal [1]	binding signal [2]
–	–	–	PhiX174 RF I DNA, ApaLI-linearized	200	50
65	17.5	20	DSS1 (natural protein)	–	–
